# Measured values: IntAct's records for PubMed 29039417
# B1: BBSome complex member BBS5 (Homo sapiens), Q8N3I7 (parent)
# chain: MSVLDALWEDRDVRFDLSAQQMKTRPGEVLIDCLDSIEDTKGNNGDRGRLLVTNLRILWHSLALSRVNVSVGYNCILNITTRTANSKLRGQTEALYILTKCNSTRFEFIFTNLVPGSPRLFTSVMAVHRAYETSKMYRDFKLRSALIQNKQLRLLPQEHVYDKINGVWNLSSDQGNLGTFFITNVRIVWHANMNDSFNVSIPYLQIRSIKIRDSKFGLALVIESSQQSGGYVLGFKIDPVEKLQESVKEINSLHKVYSASPIFGVDYEMEEKPQPLEALTVEQIQDDVEIDSDGHTDAFVAYFADGNKQQDREPVFSEELGLAIEKLKDGFTLQGLWEVMS
# partner: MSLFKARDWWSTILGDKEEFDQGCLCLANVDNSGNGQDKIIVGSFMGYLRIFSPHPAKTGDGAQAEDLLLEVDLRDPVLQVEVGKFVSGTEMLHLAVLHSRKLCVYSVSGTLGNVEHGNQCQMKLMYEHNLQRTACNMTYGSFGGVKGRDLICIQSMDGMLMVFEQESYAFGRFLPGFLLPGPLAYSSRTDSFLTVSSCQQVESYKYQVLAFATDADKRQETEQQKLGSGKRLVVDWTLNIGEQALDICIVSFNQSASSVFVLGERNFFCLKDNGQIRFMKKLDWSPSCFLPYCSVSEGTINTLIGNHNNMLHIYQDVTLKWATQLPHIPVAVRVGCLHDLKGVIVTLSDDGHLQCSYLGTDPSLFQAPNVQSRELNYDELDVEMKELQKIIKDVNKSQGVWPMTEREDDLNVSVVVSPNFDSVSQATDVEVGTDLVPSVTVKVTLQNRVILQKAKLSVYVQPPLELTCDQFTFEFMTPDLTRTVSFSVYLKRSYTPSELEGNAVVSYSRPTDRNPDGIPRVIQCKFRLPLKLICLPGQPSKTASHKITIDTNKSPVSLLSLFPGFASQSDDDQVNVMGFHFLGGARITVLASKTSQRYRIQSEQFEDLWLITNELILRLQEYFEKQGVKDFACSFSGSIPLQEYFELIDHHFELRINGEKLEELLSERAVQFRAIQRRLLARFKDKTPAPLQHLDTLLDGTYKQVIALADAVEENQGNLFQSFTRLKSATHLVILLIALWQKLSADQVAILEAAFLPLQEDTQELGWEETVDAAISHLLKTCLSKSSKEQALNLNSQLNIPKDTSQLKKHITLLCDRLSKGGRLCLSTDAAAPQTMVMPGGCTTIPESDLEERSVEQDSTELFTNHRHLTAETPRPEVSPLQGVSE
# Variants of: B1
# Details: with pthb1_human BBS9, Q3SYG4
row,Variant,effect of a mutation on the interaction
1,E158A,with no effect
2,E158K,with no effect
3,I147E,with no effect
4,I147A,with no effect
5,I147K,with no effect
6,P156A,with no effect
7,P156E,with no effect
8,P156K,with no effect
9,R143E,with no effect
10,R143K,with no effect
11,R143A,with no effect
12,L155E,with no effect
13,L155A,with no effect
14,L155K,with no effect
15,R153E,with no effect
16,R153K,with no effect
17,R153A,with no effect
18,Y137K,with no effect
19,Y137A,with no effect
20,Y137E,with no effect
21,V160A,with no effect
22,S134K,with no effect
23,S134E,with no effect
24,S134A,with no effect
25,L154E,with no effect

row,Variant,effect of a mutation on the interaction
1,L154K,with no effect
2,L154A,with no effect
3,K135A,with no effect
4,K135E,with no effect
5,Q157K,with no effect
6,Q157A,with no effect
7,Q157E,with no effect
8,H159K,with no effect
9,H159A,with no effect
10,H159E,with no effect
11,K141E,with no effect
12,K141A,with no effect
13,R138K,with no effect
14,R138E,with no effect
15,R138A,with no effect
16,A145E,with no effect
17,A145K,with no effect
18,A145T,disrupting interaction strength
19,S144E,with no effect
20,S144K,with no effect
21,S144A,with no effect
22,Q151K,with no effect
23,Q151A,with no effect
24,Q151E,with no effect
25,N149E,with no effect

row,Variant,effect of a mutation on the interaction
1,N149A,with no effect
2,N149K,with no effect
3,L152A,with no effect
4,L152E,with no effect
5,L152K,with no effect
6,K150E,with no effect
7,K150A,with no effect
8,M136E,with no effect
9,M136A,with no effect
10,M136K,with no effect
11,F140K,with no effect
12,F140A,with no effect
13,F140E,with no effect
14,Q148K,with no effect
15,Q148A,with no effect
16,Q148E,with no effect
17,L142A,with no effect
18,L142K,with no effect
19,L142E,with no effect
20,D139E,with no effect
21,D139A,with no effect
22,D139K,with no effect
23,L146E,with no effect
24,L146K,with no effect
25,L146A,with no effect

# More lines, now with the values ahead:
row,effect of a mutation on the interaction,Variant
1,with no effect,D195A
2,with no effect,D195K
3,with no effect,D195E
4,with no effect,S196K
5,with no effect,S196A
6,with no effect,S196E
7,with no effect,I164K
8,with no effect,I164A
9,with no effect,I164E
10,with no effect,I182E
11,disrupting interaction strength,I182K
12,with no effect,I182A
13,with no effect,F180A
14,disrupting interaction strength,F180K
15,with no effect,F180E
16,with no effect,W189E
17,with no effect,W189A
18,with no effect,W189K
19,with no effect,T179A
20,with no effect,T179K
21,with no effect,T179E
22,with no effect,A191E

row,effect of a mutation on the interaction,Variant
1,with no effect,A191K
2,with no effect,S171E
3,with no effect,S171K
4,with no effect,S171A
5,with no effect,N165K
6,with no effect,N165E
7,with no effect,N165A
8,with no effect,V160E
9,with no effect,V160K
10,with no effect,T183E
11,with no effect,T183A
12,with no effect,T183K
13,with no effect,D162K
14,with no effect,D162E
15,with no effect,D162A
16,with no effect,W168E
17,with no effect,W168A
18,with no effect,W168K
19,with no effect,M193A
20,with no effect,M193E
21,with no effect,M193K
22,with no effect,F181A

row,effect of a mutation on the interaction,Variant
1,with no effect,F181K
2,with no effect,F181E
3,with no effect,L177K
4,with no effect,L177A
5,with no effect,L177E
6,with no effect,H190E
7,with no effect,H190A
8,with no effect,H190K
9,with no effect,L170K
10,with no effect,L170A
11,with no effect,L170E
12,with no effect,N194E
13,with no effect,N194K
14,with no effect,N194A
15,with no effect,V185E
16,with no effect,V185A
17,with no effect,V185K
18,with no effect,K163E
19,with no effect,K163A
20,with no effect,N169A
21,with no effect,N169K
22,with no effect,N169E

row,effect of a mutation on the interaction,Variant
1,with no effect,I187K
2,with no effect,I187E
3,with no effect,I187A
4,with no effect,G178A
5,disrupting interaction strength,G178E
6,with no effect,G178K
7,disrupting interaction strength,G178R
8,disrupting interaction strength,R186E
9,disrupting interaction strength,R186K
10,with no effect,R186A
11,with no effect,S172K
12,with no effect,S172E
13,with no effect,S172A
14,with no effect,V188E
15,with no effect,V188A
16,with no effect,V188K
17,with no effect,G175E
18,with no effect,G175K
19,with no effect,G175A
20,with no effect,N192A
21,with no effect,N192K
22,with no effect,N192E

row,effect of a mutation on the interaction,Variant
1,with no effect,Q174A
2,with no effect,Q174K
3,with no effect,Q174E
4,with no effect,N184K
5,with no effect,N184A
6,disrupting interaction strength,N184E
7,with no effect,N176A
8,with no effect,N176E
9,with no effect,N176K
10,with no effect,V167E
11,with no effect,V167A
12,with no effect,V167K
13,with no effect,G166A
14,with no effect,G166E
15,with no effect,G166K
16,with no effect,Y161E
17,with no effect,Y161K
18,with no effect,Y161A
19,with no effect,D173A
20,with no effect,D173K
21,with no effect,D173E
